In PMC4933246:
One block for each substance: values may come before it.

Legend:
[1] = molecular target: PHOX2A, MYC- or HA-tagged (human) (UniProt O14813)
[2] = molecular target: PHOX2B +7Ala fused to GAL4 BD or VP16 AD (human) (UniProt Q99453); assay: two-hybrid; mammalian two-hybrid (CheckMate, Promega) in neuroblastoma SK-N-BE(2)C cells; GAL4 BD fusion (pBIND) and VP16 AD fusion (pACT), 80 fmol each, with 160 fmol pG5LUC; Dual-Luciferase assay
[3] = molecular target: PHOX2B +13Ala fused to GAL4 BD or VP16 AD (human) (UniProt Q99453); assay: as above

luciferase activity of the DBH promoter reporter in HeLa cells co-transfected with PHOX2A and the PHOX2B +7 alanine mutant (fold over the empty vector) [1]: 23
Substance: PHOX2B +7 alanine mutant, MYC- or HA-tagged (from UniProt Q99453 1-314) (natural protein)

fold increase in luciferase activity [2]: 1.7 fold
Substance: PHOX2B +7Ala fused to GAL4 BD or VP16 AD (from UniProt Q99453 1-314) (natural protein)

fold increase in luciferase activity [3]: 2 fold
Substance: PHOX2B +13Ala fused to GAL4 BD or VP16 AD (from UniProt Q99453 1-314) (natural protein)
